The subject of data set [1] is eIF2 with eIF2beta-F217A/Q221A;eIF1 (WT);eIF1A (WT);40S ribosomal subunit (Saccharomyces cerevisiae (yeast);Saccharomyces cerevisiae (yeast);Saccharomyces cerevisiae? (yeast);Saccharomyces cerevisiae (strain YAS2488)). Kind of data set: EMSA kinetics. As to conditions: aminoacylated with Met; 30 mM HEPES-KOH pH 7.4, 100 mM potassium acetate, 3 mM magnesium acetate, 2 mM DTT, 26 C; GDPNP; native gel shift.

Data set [2] deals with eIF2 with eIF2beta-E189R;eIF1 (WT);eIF1A (WT);40S ribosomal subunit (Saccharomyces cerevisiae (yeast);Saccharomyces cerevisiae (yeast);Saccharomyces cerevisiae? (yeast);Saccharomyces cerevisiae (strain YAS2488)). The experiment in a line: EMSA kinetics. Conditions: aminoacylated with Met; 30 mM HEPES-KOH pH 7.4, 100 mM potassium acetate, 3 mM magnesium acetate, 2 mM DTT, 26 C; GDPNP; native gel shift.

The subject of data set [3] is eIF2 (WT), GDPNP-bound;eIF1-Q31A/F108A;eIF1A (WT);40S ribosomal subunit (Saccharomyces cerevisiae (yeast);Saccharomyces cerevisiae (yeast);Saccharomyces cerevisiae? (yeast);Saccharomyces cerevisiae (strain YAS2488)). The experiment in a line: EMSA kinetics. Conditions: aminoacylated with Met, 30 mM HEPES-KOH pH 7.4, 100 mM potassium acetate, 3 mM magnesium acetate, 2 mM DTT, 26 C, native gel shift. (In general: Mobility shift assays separate free from complexed probe on a gel.)

Data set [4] concerns the target ternary complex (TC) of WT eIF2, GDPNP and Met-tRNAi, P20459;P09064;P32481. The experiment in a line: TC dissociation kinetics, EMSA.
In data set [5] the target is 40S·eIF1·eIF1A·mRNA complex with WT eIF1, P32911;P38912. Kind of data set: TC binding kinetics (kobs versus [40S], as in Figure 6A–C). As to conditions: three independent experiments.

In general, koff refers to the first-order rate constant of dissociation. Low values mean a long-lived complex, high ones a short-lived complex.

As for Met-tRNAi on 40S with mRNA(UUG), the binding signal (fold decrease in kon vs WT eIF2) in data set [1] is 1.5. Moreover, in data set [2], the binding signal (fold decrease in koff vs WT eIF2) was found to be 2. Turning to Met-tRNAi on 40S with mRNA(AUG), in data set [1], the binding signal (fold decrease in kon vs WT eIF2) was found to be 1.5. Further, in data set [3], the binding signal (fold decrease in kon vs WT eIF1) was 2. For the substance “40S·eIF1·eIF1A·mRNA complex with WT eIF1 (from UniProt P32911;P38912) eIF1:F108D”, the koff in data set [4] (mRNA(AUG), n = 3 (WT n = 5)) turned out to be 5e-05 s⁻¹; in data set [4] (mRNA(UUG), n = 3 (WT n = 5)) it was 7.5e-05 s⁻¹.

Turning to “40S·eIF1·eIF1A·mRNA complex with WT eIF1 (from UniProt P32911;P38912) eIF1:Q31E”, the koff in data set [4] (mRNA(UUG), n = 4 (WT n = 5)) turned out to be 3.33e-05 s⁻¹. With “ternary complex (TC) of WT eIF2, GDPNP and Met-tRNAi (from UniProt P20459;P09064;P32481) eIF2β:S202A; eIF2β:K214A”, the kon in data set [5] (mRNA(AUG)) was 4.11 s⁻¹; in data set [5] (mRNA(UUG)), 2.76 s⁻¹.

(Values after publication PMC6411837.)
